Drawing on doi:10.1101/2020.08.17.254268, this text covers runlength of CeOSM-3 with MmIFT-52/IFT-70 in the single-molecule transport assay and velocity of CeOSM-3 with MmIFT-52/IFT-70 in the single-molecule transport assay for one substance.

This experiment has as its target CeOSM-3 kinesin-2 motor, SNAP-tagged and labelled (CeOSM-3^SNAP647) (C. elegans) (UniProt P46873).
Chain of UniProt P46873 (P46873 whole entry): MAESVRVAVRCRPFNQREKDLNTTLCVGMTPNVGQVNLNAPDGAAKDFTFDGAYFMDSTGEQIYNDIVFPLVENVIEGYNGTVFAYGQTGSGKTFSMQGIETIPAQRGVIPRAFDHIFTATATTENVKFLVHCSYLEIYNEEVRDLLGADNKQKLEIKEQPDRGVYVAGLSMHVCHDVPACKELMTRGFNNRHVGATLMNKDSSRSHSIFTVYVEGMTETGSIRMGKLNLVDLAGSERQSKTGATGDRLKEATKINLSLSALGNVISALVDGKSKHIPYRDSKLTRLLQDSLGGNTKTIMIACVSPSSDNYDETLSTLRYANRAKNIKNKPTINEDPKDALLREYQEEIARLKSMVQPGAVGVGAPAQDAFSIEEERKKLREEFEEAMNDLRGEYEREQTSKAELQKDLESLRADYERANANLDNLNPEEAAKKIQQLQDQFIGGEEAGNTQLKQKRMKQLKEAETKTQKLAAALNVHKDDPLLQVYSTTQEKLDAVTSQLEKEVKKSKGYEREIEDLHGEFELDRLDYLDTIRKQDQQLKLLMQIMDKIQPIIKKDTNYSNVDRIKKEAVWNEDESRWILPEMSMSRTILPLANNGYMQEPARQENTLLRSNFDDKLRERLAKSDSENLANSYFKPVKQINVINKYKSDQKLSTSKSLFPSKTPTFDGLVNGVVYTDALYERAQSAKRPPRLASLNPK

For “MmIFT-52^GFP/IFT-70^SNAP647 adaptor (from UniProt Q62559 1-426; Q99J38 1-664) (complex)”, the runlength of CeOSM-3 with MmIFT-52/IFT-70 in the single-molecule transport assay came out at 3 μm and the velocity of CeOSM-3 with MmIFT-52/IFT-70 in the single-molecule transport assay worked out at 1.72 μm/s.
